Values of other authors as cited in patent US20200102349A1, “PEPTIDE REAGENTS AND METHODS FOR DETECTION AND TARGETING OF DYSPLASIA, EARLY CANCER AND CANCER” (THE REGENTS OF THE UNIVERSITY OF MICHIGAN, priority 2014, published 2020).

Test system: mouse xenograft tumor that overexpressesed EGFR
Details: whole body fluorescence imaging

B1: Human recombinant EGF: Human recombinant EGF labeled with IRDye 800 CW (NHS ester) (protein, UniProt P01133 23-1207, looked up)
Pro-epidermal growth factor: PQHWSCPEGTLAGNGNSTCVGPAPFLIFSHGNSIFRIDTEGTNYEQLVVDAGVSVIMDFHYNEKRIYWVDLERQLLQRVFLNGSRQERVCNIEKNVSGMAINWINEEVIWSNQQEGIITVTDMKGNNSHILLSALKYPANVAVDPVERFIFWSSEVAGSLYRADLDGVGVKALLETSEKITAVSLDVLDKRLFWIQYNREGSNSLICSCDYDGGSVHISKHPTQHNLFAMSLFGDRIFYSTWKMKTIWIANKHTGKDMVRINLHSSFVPLGELKVVHPLAQPKAEDDTWEPEQKLCKLRKGNCSSTVCGQDLQSHLCMCAEGYALSRDRKYCEDVNECAFWNHGCTLGCKNTPGSYYCTCPVGFVLLPDGKRCHQLVSCPRNVSECSHDCVLTSEGPLCFCPEGSVLERDGKTCSGCSSPDNGGCSQLCVPLSPVSWECDCFPGYDLQLDEKSCAASGPQPFLLFANSQDIRHMHFDGTDYGTLLSQQMGMVYALDHDPVENKIYFAHTALKWIERANMDGSQRERLIEEGVDVPEGLAVDWIGRRFYWTDRGKSLIGRSDLNGKRSKIITKENISQPRGIAVHPMAKRLFWTDTGINPRIESSSLQGLGRLVIASSDLIWPSGITIDFLTDKLYWCDAKQSVIEMANLDGSKRRRLTQNDVGHPFAVAVFEDYVWFSDWAMPSVMRVNKRTGKDRVRLQGSMLKPSSLVVVHPLAKPGADPCLYQNGGCEHICKKRLGTAWCSCREGFMKASDGKTCLALDGHQLLAGGEVDLKNQVTPLDILSKTRVSEDNITESQHMLVAEIMVSDQDDCAPVGCSMYARCISEGEDATCQCLKGFAGDGKLCSDIDECEMGVPVCPPASSKCINTEGGYVCRCSEGYQGDGIHCLDIDECQLGEHSCGENASCTNTEGGYTCMCAGRLSEPGLICPDSTPPPHLREDDHHYSVRNSDSECPLSHDGYCLHDGVCMYIEALDKYACNCVVGYIGERCQYRDLKWWELRHAGHGQQQKVIVVAVCVVVLVMLLLLSLWGAHYYRTQKLLSKNPKNPYEESSRDVRSRRPADTEDGMSSCPQPWFVVIKEHQDLKNGGQPVAGEDGQAADGSMQPTSWRQEPQLCGMGTEQGCWIPVSSDKGSCPQVMERSFHMPSYGTQTLEGGVEKPHSLLSANPLWQQRALDPPHQMELTQ
modifications: Pro-epidermal growth factor IRDye 800CW label
- time of peak signal after injection: 2 days
